For assay [1], the target named is T1, monkey serum albumin (CySA) (monkey).
T1 chain: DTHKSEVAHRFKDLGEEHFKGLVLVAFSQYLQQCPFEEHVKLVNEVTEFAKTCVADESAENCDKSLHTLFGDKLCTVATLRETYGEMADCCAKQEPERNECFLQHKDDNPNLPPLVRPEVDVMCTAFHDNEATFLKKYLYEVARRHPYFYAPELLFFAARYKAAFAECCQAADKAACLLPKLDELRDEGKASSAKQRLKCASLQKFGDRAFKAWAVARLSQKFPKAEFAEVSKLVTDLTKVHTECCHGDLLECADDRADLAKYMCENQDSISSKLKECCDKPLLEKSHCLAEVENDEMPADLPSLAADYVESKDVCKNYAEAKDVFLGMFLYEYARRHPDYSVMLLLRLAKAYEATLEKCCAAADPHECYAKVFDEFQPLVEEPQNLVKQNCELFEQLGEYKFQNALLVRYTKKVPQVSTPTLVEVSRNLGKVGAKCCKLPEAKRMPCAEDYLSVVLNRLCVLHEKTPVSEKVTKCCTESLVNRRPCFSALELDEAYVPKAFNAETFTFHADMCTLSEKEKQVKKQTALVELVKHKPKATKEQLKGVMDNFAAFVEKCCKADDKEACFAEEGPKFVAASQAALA
In words: phage supernatant ELISA, albumin coated. (In general: An ELISA detects its analyte on a solid surface through an enzyme-linked reagent.)

Assay [2] concerns the target mouse serum albumin (mSA) (mouse). In words: phage supernatant ELISA, albumin coated.
Assay [3] has as its target human serum albumin (HSA) (human). In words: phage supernatant ELISA, albumin coated.
The target in another assay is T2, human RXFP1 receptor (human, UniProt Q9HBX9 1-757).
T2 sequence (looked up): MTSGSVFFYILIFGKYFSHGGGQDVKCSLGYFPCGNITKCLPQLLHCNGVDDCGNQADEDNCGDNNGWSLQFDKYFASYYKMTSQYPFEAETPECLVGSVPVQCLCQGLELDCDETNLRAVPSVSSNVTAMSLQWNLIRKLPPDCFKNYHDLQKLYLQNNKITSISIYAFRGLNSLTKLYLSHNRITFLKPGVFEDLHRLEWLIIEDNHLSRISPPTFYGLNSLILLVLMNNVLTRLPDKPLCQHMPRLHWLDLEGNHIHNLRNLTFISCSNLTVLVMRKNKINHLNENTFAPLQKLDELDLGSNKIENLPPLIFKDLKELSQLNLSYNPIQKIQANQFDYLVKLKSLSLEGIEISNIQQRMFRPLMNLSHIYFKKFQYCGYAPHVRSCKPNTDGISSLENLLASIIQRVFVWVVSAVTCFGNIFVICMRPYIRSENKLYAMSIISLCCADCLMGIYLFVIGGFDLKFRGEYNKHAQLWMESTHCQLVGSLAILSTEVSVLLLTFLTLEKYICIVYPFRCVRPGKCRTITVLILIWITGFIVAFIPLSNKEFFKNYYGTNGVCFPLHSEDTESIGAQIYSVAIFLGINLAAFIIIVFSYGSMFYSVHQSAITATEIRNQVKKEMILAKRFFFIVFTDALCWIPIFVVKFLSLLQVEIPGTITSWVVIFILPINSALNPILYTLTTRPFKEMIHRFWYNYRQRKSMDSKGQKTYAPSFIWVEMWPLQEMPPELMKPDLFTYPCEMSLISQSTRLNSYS
In words: cell-based or functional assay.

Assay [4] addresses T3, rat serum albumin (rat).
T3 chain: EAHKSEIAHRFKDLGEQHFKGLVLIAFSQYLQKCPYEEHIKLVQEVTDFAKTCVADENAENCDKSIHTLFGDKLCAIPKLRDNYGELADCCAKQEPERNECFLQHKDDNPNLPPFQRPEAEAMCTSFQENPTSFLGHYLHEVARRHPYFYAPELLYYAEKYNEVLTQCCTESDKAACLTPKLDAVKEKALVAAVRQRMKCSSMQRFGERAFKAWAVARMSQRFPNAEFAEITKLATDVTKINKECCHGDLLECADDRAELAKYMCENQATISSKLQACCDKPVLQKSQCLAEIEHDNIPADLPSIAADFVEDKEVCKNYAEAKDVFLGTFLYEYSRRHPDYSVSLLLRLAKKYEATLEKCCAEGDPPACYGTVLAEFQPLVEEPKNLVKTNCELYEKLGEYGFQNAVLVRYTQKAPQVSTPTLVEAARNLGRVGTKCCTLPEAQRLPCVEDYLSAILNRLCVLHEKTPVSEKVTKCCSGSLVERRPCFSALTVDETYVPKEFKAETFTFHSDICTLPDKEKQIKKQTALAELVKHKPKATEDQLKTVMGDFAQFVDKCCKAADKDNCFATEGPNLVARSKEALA
Nature of the assay: SPR Biacore T200, fusion protein captured by anti-VHH antibody, albumin as analyte. The protocol:
(§1) Coupling of an anti-VHH antibody (MonoRab™ Rabbit Anti-Camelid VHH Cocktail, Genescript, Cat No. A02014) to an S series CM5 sensor chip (GE, Cat No. 29-1049-88) was performed using an amino coupling kit (GE, Cat No. BR-1000-50). The antibody was diluted to 10 μg/mL with 10 mM sodium acetate (pH 4.5) (GE, Cat No. BR-1003-50). After the CM5 chip was activated with EDC/NHS, the diluted anti-VHH antibody was flowed over the chip to reach a surface response value of about 5000 RU, and then the chip was blocked with ethanolamine for later use.
(§2) The albumin from each species was serially diluted in a gradient with 1XHBS-EP (10 mM HEPES, pH 7.4, 150 mM NaCl, 3 mM EDTA, 0.05% Surfactant P20). The test fusion protein molecule was captured using the anti-VHH antibody-coupled chip, with a response value of about 30 RU. Then, different concentrations of serum albumin were flowed over the surface of the chip for 3 min at a flow rate of 50 μL/min, with a dissociation time of 1-10 min (the dissociation time varied depending on the species of albumin). After the end of each cycle, the chip was regenerated using 10 mM glycine-hydrochloric acid (pH 1.5) (GE, Cat No. BR-1003-54). The reaction signals were detected in real-time using Biacore T200 (GE) to obtain the association and dissociation curves, and the data obtained were fitted with a Langmuir 1:1 binding model using the BIAevaluation version 4.1 software at appropriate concentration points to obtain the affinity values.
(In SPR one partner is held on a chip, and binding of the other changes the refractive index at the surface.)

In assay [5] the target is human serum albumin (HSA) (human). The assay is described as above. The protocol: as §1, §2
Assay [6] addresses mouse serum albumin (mSA) (mouse). In words: SPR Biacore T200, albumin amine-coupled, fusion protein as analyte. The method, then:
(§3) Coupling of serum albumins from different species to an S series CM5 sensor chip (GE, Cat. 29-1049-88) was performed using an amino coupling kit (GE, Cat No. BR-1000-50). The albumin from each species was diluted to 2 μg/mL. After the CM5 chip was activated with EDC/NHS, the diluted albumin was flowed over the chip to reach a surface response value of about 200 (180 to 230) RU, and then the chip was blocked with ethanolamine. The blank control channel also needed to be activated with EDC/NHS and blocked with ethanolamine. […] The samples of 0051 and 0054 at different concentrations were separately flowed through the albumin-coupled and blank channels for 3 min at a flow rate of 50 μL/min, with a dissociation time of 4 min. After the end of each cycle, the chip was regenerated using 10 mM glycine-hydrochloric acid (pH 1.5) (GE, Cat. #BR-1003-54). The reaction signals were detected in real-time using Biacore T200 (GE) to obtain the association and dissociation curves, and the data obtained were fitted with a Langmuir 1:1 binding model using the BIAevaluation version 4.1 software at appropriate concentration points to obtain the affinity values.

The target in assay [7] is T3, rat serum albumin. The description is as above. The method, then:
as §3

In assay [8] the target is human serum albumin (HSA) (human). Described as above. The method, then: as §3

B1: #7aHSA (VHH)
VHH: HVQLVESGGGSVQAGGSLRVSCVASGNTYLTSCMGWFRQAPGKEREGVASIYTVGGSTFYTNSVKGRFTISRDNAKNTVYLQMNSLQPEDTAMYYCAAGSPARCRLRDPTTFDYWGQGTQVTVSS
notes: also called clone #7
Regarding B1, the OD450 came to 1.75 OD450 in assay [1], 1.12 OD450 in assay [2] and 1.69 OD450 in assay [3].

B2: 0065 (other)
chain: EVQLLESGGGLVQPGGSLRLSCAASGFTFLTSCMGWFRQAPGKEREGVSSIYTVGGSTFYTNSVKGRFTISRDNSKNTLYLQMNSLRPEDTAVYYCAAGSPARCRLRDPTTFDYWGQGTLVTVSSGGGGQGGGGQGGGGQGGGGQGGGGQSWMEEVIKLCGRELVRAQIAICGMSTWSGGGSGGSGGGQLYSALANKCCHVGCTKRSLARFC
notes: Single-chain fusion: anti-HSA VHH, linker, relaxin-2 B chain, linker, relaxin-2 A chain; also called fusion protein 0065
Turning to B2, in the assay with human RXFP1 receptor, the “EC50 (nM), cAMP production in THP1 cells, 1% HSA” value (“EC50 (nM) … 1% HSA” below) was found to be 23 nM and the “EC50 (nM), cAMP production in THP1 cells, without HSA” value (from here on “EC50 (nM) … without HSA”) is 2.08 nM. In the assay with rat serum albumin [4], this molecule had a Kd of 159 nM, a koff of 0.00567 s⁻¹ and a kon of 35700 M⁻¹ s⁻¹. Moreover, in [5], the Kd amounted to 9.68 nM, the dissociation rate constant (koff) was determined as 0.000797 s⁻¹ and the kon was determined as 82300 M⁻¹ s⁻¹.

B3: 0064 (other)
chain: EVQLLESGGGLVQPGGSLRLSCAASGNTYLTSCMGWFRQAPGKEREGVSSIYTVGGSTFYTNSVKGRFTISRDNSKNTLYLQMNSLQPEDTAVYYCAAGSPARCRLRDPTTFDYWGQGTLVTVSSGGGGQGGGGQGGGGQGGGGQGGGGQSWMEEVIKLCGRELVRAQIAICGMSTWSGGGSGGSGGGQLYSALANKCCHVGCTKRSLARFC
notes: Single-chain fusion: anti-HSA VHH, linker, relaxin-2 B chain, linker, relaxin-2 A chain; also called fusion protein 0064
Regarding B3, in the assay with human RXFP1 receptor, the “EC50 (nM) … 1% HSA” value came to 19.8 nM and the “EC50 (nM) … without HSA” value was found to be 8.5 nM. In the assay with rat serum albumin [4], this molecule came in with a Kd of 58.5 nM, a koff of 0.00579 s⁻¹ and a kon of 98900 M⁻¹ s⁻¹. In assay [5], this molecule came in with a Kd of 5.59 nM, a koff of 0.00086 s⁻¹ and a kon of 154000 M⁻¹ s⁻¹.

B4: 0052 (other)
chain: EVQLLESGGGLVQPGGSLRLSCAASGFTFLTSCMGWFRQAPGKEREGVSSIYTVGGSTFYTNSVKGRFTISRDNSKNTLYLQMNSLRAEDTAVYYCAAGSPARCRLRDPTTFDYWGQGTLVTVSSPGPAPGPAPGPAPGPAPGPAPGPAPGPAPGPASWMEEVIKLCGRELVRAQIAICGMSTWSGGGSGGSGGGQLYSALANKCCHVGCTKRSLARFC
notes: Single-chain fusion: anti-HSA VHH, linker, relaxin-2 B chain, linker, relaxin-2 A chain; also called fusion protein 0052
In the case of B4, in the assay with human RXFP1 receptor, the “EC50 (nM) … 1% HSA” value is 21.5 nM and the “EC50 (nM) … without HSA” value was found to be 5.22 nM. Also, in the assay with rat serum albumin [4], the Kd was determined as 145 nM, the off-rate (koff) turned out to be 0.00599 s⁻¹ and the kon came to 41300 M⁻¹ s⁻¹. In addition, in assay [5], the affinity, expressed as Kd, was 9.65 nM; the koff worked out at 0.000867 s⁻¹; the kon came to 89900 M⁻¹ s⁻¹.

B5: 0054 (other)
chain: EVQLLESGGGLVQPGGSLRLSCAASGRYIDETAVAWFRQAPGKGREFVAGIGGGVDITYYADSVKGRFTISRDNSKNTLYLQMNSLRPEDTAVYYCAARPGRPLITSKVADLYPYWGQGTLVTVSSGGGGQGGGGQGGGGQGGGGQGGGGQSWMEEVIKLCGRELVRAQIAICGMSTWSGGGSGGSGGGQLYSALANKCCHVGCTKRSLARFC
notes: also called positive control 0054; positive control molecule 0054
As to B5, the Kd in assay [6] worked out at 1.37 nM; with rat serum albumin [7], 1.06 nM; in [8], 0.099 nM; with rat serum albumin [4], 183 nM; in [5], 15.8 nM. For the same molecule, the dissociation rate constant (koff) in [6] stood at 0.0027 s⁻¹; with rat serum albumin [7] it was 0.00246 s⁻¹; in [8] it was 0.000181 s⁻¹; with rat serum albumin [4] it was 0.0113 s⁻¹; in assay [5], 0.000563 s⁻¹. The kon in [6] was 1.97e+06 M⁻¹ s⁻¹; in the assay with rat serum albumin [7], 2.31e+06 M⁻¹ s⁻¹; in assay [8], 1.83e+06 M⁻¹ s⁻¹; with rat serum albumin [4], 61500 M⁻¹ s⁻¹; in [5], 35700 M⁻¹ s⁻¹.

B6: #9aHSA (VHH)
VHH: DVQLVESGGGSVQAGGSLRLSCAAAEYTYLNSCLGWFRQAPGKEREGVATIYMVGGSTFYADSVKGRFTISRDNAKNTVYLMMNSLKPEDTAMYYCAAGSPARCLRRDPTTFNYWGQGTQVTVSS
notes: also called clone #9
With B6, the OD450 in [1] turned out to be 1.82 OD450; in assay [2], 1.09 OD450; in assay [3], 1.52 OD450.

Broadly, the Kd is a measure of binding affinity in units of concentration. As usually defined, the koff is the rate constant with which the complex falls apart. What is called kon is the second-order rate constant of association.

Source of the values: patent publication US20250312444A1 (BEIJING TUO JIE BIOPHARMACEUTICAL, published 2025).
